Measurements published in PMC11869522, “Competitive displacement of lipoprotein lipase from heparan sulfate is orchestrated by a disordered acidic cluster in GPIHBP1” (Journal of Lipid Research, 2025).
Changes are numbered by the printed parent chain. Where no end group is shown, it is not given here. The star is where a group is joined. sulfate = O=S(=O)(O)*

Experiments:
[1] = tested on: hLPL bound to immobilized heparan sulfate; test: GPIHBP1-mediated extraction of LPL from HSPGs (SPR, immobilized heparin dp4 fragments); format: binding, human; conditions: 12.5–200 nM GPIHBP1 proteins, 0.1–1.6 μM sulfated GPIHBP1^1–33, or GPIHBP1^34–131 with 1 μM sulfated GPIHBP1^1–33
Description: To mimic electrostatic conditions found in the sub-endothelial spaces where surface-bound heparan-sulfate proteoglycans (HSPGs) are abundant, we designed a surrogate sensor surface using a streptavidin-coated CM5 sensor chip to capture high densities of biotinylated synthetic heparin dp4 fragments ([28], [29]). The reference surface was loaded with a neutral and non-sulfated fragment (M09 S00 from Iduron), while the active surface was loaded with a negatively charged fragment (M09 S08a from Iduron) containing N- and O-6-linked sulfations on each of the […] glucosamine residues in the DP4 fragment. Only the highly sulfated oligosaccharide bound LPL, and those interactions were transient with high off-rates. Despite the very transient nature of this binding, we created a stable reservoir of hLPL on the sensor surface by combining the fast kinetics of polyelectrolyte interactions with severe mass transport limitation—the latter phenomenon impedes LPL escape from the surface due to the fast rebinding that is favored by the high densities of immobilized heparin fragments (300 fmol/mm^2). For each experiment, 12.5 nM hLPL was loaded for 100 s at a flow rate of 20 μl/min in 10 mM Hepes (pH 7.4), 150 mM NaCl, 4 mM CaCl2, 10% (vol/vol) glycerol, 0.05% (vol/vol) surfactant P20, 1 mg/ml defatted BSA, […], and 0.05% (wt/vol) NaN3.
To compare the ability of GPIHBP1^1–131 and its charge variants to bind and extract hLPL from this dynamic reservoir, we injected twofold serial dilutions of 1.25–200 nM GPIHBP1^1–131; 1.25–200 nM GPIHBP1^Cluster1-neutral; GPIHBP1^Cluster2-neutral; 1.25–200 nM GPIHBP1^34–131; 0.1–1.6 μM GPIHBP1^1–33 with Tyr^18–SO4; or 1.25–200 nM GPIHBP1^34–131 in the presence of 1 μM sulfated GPIHBP1^1–33 for 250 s at 20 μl/min in 10 mM Hepes (pH 7.4), 150 mM NaCl, 4 mM CaCl2, 10% (vol/vol) glycerol, 0.05% (vol/vol) surfactant P20, 0.2 mg/ml fatty acid-free BSA, and 0.05% (wt/vol) NaN3. At the end of each cycle, two consecutive injections of 10 μl 3 M guanidinium chloride regenerated the chip.
GPIHBP1’s ability to displace LPL from its HSPG-bound state in the sub-endothelial spaces is essential for the trans-endothelial trafficking of LPL to the luminal surface of capillary cells ([29]). The importance of the acidic tail in this process is supported by solid evidence from surrogate in vitro models and in vivo studies in gene-edited mice ([28], [29]). It was therefore important to determine the relative impact of the two charge-clusters in GPIHBP1 on their ability to disrupt LPL•HSPG interactions. To gain this insight, we measured the ability of different GPIHBP1 charge variants to displace hLPL from a SPR sensor chip surface coupled with a high density of immobilized small heparin-like fragments ([28]). […]

bLPL = test: PCSK3 cleavage of LPL (SDS-PAGE densitometry); format: biochemical, bovine; conditions: 20 μM bLPL, 4 units PCSK3, 2 μM ANGPTL4, no GPIHBP1; 25°C, pH 7.0; 110 min without ANGPTL4
Experimental: To determine if charge-variants of GPIHBP1 confer distinct resistance to ANGPTL4-facilitated cleavage of LPL after Arg^324 by PCSK3 ([33]), we incubated purified bLPL (20 μM) with PCSK3 (4 units) for 0–240 min, either alone or in the presence of ANGPTL4 (2 μM) and/or GPIHBP1 (25 μM) at 25°C in 10 mM 2-(N-morpholino) ethane sulfonic acid (MES), 150 mM NaCl, 1 mM CaCl2, pH 7.0. We tested four different GPIHBP1 variants: GPIHBP1^1–131, GPIHBP1^Cluster1-neutral, GPIHBP1^Cluster2-neutral, and GPIHBP1^34–131 (LU domain only). PCSK3 cleavage was stopped by boiling in SDS-PAGE sample buffer (reduced and alkylated) and the degree of cleavage was assessed by SDS-PAGE using 12% Bis-Tris SDS-PAGE gels followed by densitometric scanning of the corresponding Coomassie blue–stained SDS-polyacrylamide gels.
Secretion of LPL by adipocytes is modulated in an autocrine manner by ANGPTL4. […] In the presence of endogenous ANGPTL4, a significant fraction of LPL was cleaved by PCSK3 in the trans-Golgi compartment. […] The presence of GPIHBP1 dramatically delayed PCSK3 cleavage of LPL ([33]). To assess the role of the acidic tail in GPIHBP1 on this delay, we incubated 20 μM bLPL with 4 units of PCSK3 either alone or in the presence of 2 μM ANGPTL4. We observed that the presence of sub-stoichiometric amounts of ANGPTL4 reduced the half-life of intact bLPL from 110 min to less than 5 min (Fig. 5A). […] Our results emphasized the essential role of GPIHBP1’s acidic tail in protecting LPL against ANGPTL4-induced cleavage by PCSK3.
Fig. 5 GPIHBP1 reduces ANGPTL4-facillitated PSCK3 cleavage of LPL. 20 μM bLPL was incubated with 4 units of PSCK3 for 0–240 min at 25°C and the extent of LPL cleavage after Arg^324 was assessed by densitometric scanning of Coomassie–blue stained polyacrylamide after SDS-PAGE of reduced and alkylated samples. A: PSCK3 cleavage of LPL is accelerated by the presence of 2 μM ANGPTL4—present at sub-stoichiometric amounts compared to bLPL (20 μM). 25 μM intact GPIHBP1, but not GPIHBP1^34–131 mitigates PSCK3 cleavage of LPL. B: Both GPIHBP1^Cluster1-neutral and GPIHBP1^Cluster2-neutral rescue LPL from cleavage by PSCK3 in the absence of ANGPTL4 and both are more efficient than GPIHBP1^34–131. C: in the presence of 2 μM ANGPTL4, 25 μM GPIHBP1^Cluster1-neutral protects LPL from PSCK3 cleavage more efficiently than the GPIHBP1^Cluster2-neutral, which indicates a more prominent role of acidic cluster 2 in protecting LPL from ANGPTL4-catalyzed unfolding and subsequent PSCK3 cleavage. Shown are the mean values (±SEM) for intact LPL relative to that present at time 0 min for 3–5 independent time-course experiments. Some curves appear in multiple panels to increase clarity.

[2] = biological target: T1, Human LPL (lipoprotein lipase) (human, UniProt P06858 28-475, R324A); test: cell-based or functional assay
T1 sequence (looked up): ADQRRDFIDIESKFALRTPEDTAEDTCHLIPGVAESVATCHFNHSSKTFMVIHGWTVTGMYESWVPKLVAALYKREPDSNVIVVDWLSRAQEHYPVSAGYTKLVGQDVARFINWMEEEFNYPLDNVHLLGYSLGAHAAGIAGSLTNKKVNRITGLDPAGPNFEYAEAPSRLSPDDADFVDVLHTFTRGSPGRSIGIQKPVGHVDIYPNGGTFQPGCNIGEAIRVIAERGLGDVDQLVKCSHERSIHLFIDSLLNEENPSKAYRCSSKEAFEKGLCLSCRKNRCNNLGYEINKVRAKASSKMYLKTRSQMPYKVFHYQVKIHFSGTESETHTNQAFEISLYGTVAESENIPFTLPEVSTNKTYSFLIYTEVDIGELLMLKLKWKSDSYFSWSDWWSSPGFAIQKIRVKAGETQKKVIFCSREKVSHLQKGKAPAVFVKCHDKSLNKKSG

Bovine LPL = biological target: T2, Bovine LPL (bovine, UniProt P11151 29-478); test: native gel or EMSA; native PAGE of purified GPIHBP1 charge variants with hLPL, bLPL or mLPL (supplemental Fig. S1); conditions: both partners purified
T2 construct: also called bLPL; source: purified from fresh bovine milk
T2 sequence (looked up): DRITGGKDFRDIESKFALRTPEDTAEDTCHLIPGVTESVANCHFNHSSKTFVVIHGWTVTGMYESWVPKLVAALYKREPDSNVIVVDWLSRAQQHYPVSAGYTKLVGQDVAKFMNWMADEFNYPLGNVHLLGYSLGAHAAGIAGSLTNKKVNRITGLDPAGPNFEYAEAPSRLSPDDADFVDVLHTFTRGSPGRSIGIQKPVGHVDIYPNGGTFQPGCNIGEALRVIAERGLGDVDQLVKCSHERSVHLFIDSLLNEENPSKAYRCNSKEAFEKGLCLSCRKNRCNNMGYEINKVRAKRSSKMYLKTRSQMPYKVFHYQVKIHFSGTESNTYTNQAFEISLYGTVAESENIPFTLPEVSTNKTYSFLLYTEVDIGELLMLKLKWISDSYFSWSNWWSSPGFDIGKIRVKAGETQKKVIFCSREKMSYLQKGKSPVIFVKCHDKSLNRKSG

“sulfated GPIHBP1^1–33: GPIHBP1^1–33 peptide carrying a tyrosyl-sulfation (Tyr^18) (QTQQEEEEEDEDHGPDDY(sulfate)DEEDEDEVEEEETNR; UniProt Q8IV16 21-53, looked up, fragment)” was tested, and the “competitive displacement of HSPG-bound hLPL (in words)” value [1] was “not perturbed”.

B1: ANGPTL4: Coiled-coil domain of ANGPTL4 (residues 1–159, N-terminal methionine, C-terminal 6× His-tag) produced in E. coli (protein, UniProt Q9BY76 26-406, looked up)
Angiopoietin-related protein 4: GPVQSKSPRFASWDEMNVLAHGLLQLGQGLREHAERTRSQLSALERRLSACGSACQGTEGSTDLPLAPESRVDPEVLHSLQTQLKAQNSRIQQLFHKVAQQQRHLEKQHLRIQHLQSQFGLLDHKHLDHEVAKPARRKRLPEMAQPVDPAHNVSRLHRLPRDCQELFQVGERQSGLFEIQPQGSPPFLVNCKMTSDGGWTVIQRRHDGSVDFNRPWEAYKAGFGDPHGEFWLGLEKVHSITGDRNSRLAVQLRDWDGNAELLQFSVHLGGEDTAYSLQLTAPVAGQLGATTVPPSGLSVPFSTWDQDHDLRRDKNCAKSLSGGWWFGTCSHSNLNGQYFRSIPQQRQKLKKGIFWKTWRGRYYPLQATTMLIQPMAAEAAS
With B1 the “half-life of intact bLPL” value (bLPL) was “less than 5 min”.

B2: GPIHBP1^1–131/R38G (domain or fragment, human, UniProt Q8IV16 21-151, looked up)
chain: QTQQEEEEEDEDHGPDDYDEEDEDEVEEEETNRLPGGGSRVLLRCYTCKSLPRDERCNLTQNCSHGQTCTTLIAHGNTESGLLTTHSTWCTDSCQPITKTVEGTQVTMTCCQSSLCNVPPWQSSRVQDPTG
modifications: sulfated Tyr18; one bi-antennary N-linked glycosylation
B2 was tested, and the “reduction in hLPL levels on the heparan sulfate sensor surface after GPIHBP1 injections (12.5–200 nM), SPR” value (shortened to “reduction in hLPL levels”) [2] was 68.1%.

B3: GPIHBP1^Cluster2-neutral (domain or fragment, human, UniProt Q8IV16 21-151, looked up)
chain: QTQQEEEEEDEDHGPDDYNQQNQNQVQQQQTNRLPGGGSRVLLRCYTCKSLPRDERCNLTQNCSHGQTCTTLIAHGNTESGLLTTHSTWCTDSCQPITKTVEGTQVTMTCCQSSLCNVPPWQSSRVQDPTG
modifications: Tyr18 sulfation absent; one bi-antennary N-linked glycosylation
notes: Construct from VectorBuilder Inc; source: Drosophila S2-cells, secreted, purified, D3 tag removed; not shown: uPAR domain III, N-terminal, cleaved
In the case of B3, the “reduction in hLPL levels” value [2] is reported as 1.2% and the binding result (Bovine LPL) is reported as “binds”.

B4: GPIHBP1^Cluster1-neutral (domain or fragment, human, UniProt Q8IV16 21-151, looked up)
chain: B2 chain with E5Q, E6Q, E7Q, E8Q, E9Q, D10N, E11Q, D12N, D16N, D17N
modifications: Tyr18 sulfation present in less than 40%; one bi-antennary N-linked glycosylation
notes: as for B3
With B4 the “reduction in hLPL levels” value [2] was 34.8% and the binding result (Bovine LPL) was “binds”.
